The source of these data is patent publication US20260317410 (published 2026).

The target in assay [1] is T1, Fc-Nectin-4 IgV (human, UniProt Q96NY8).
T1 chain: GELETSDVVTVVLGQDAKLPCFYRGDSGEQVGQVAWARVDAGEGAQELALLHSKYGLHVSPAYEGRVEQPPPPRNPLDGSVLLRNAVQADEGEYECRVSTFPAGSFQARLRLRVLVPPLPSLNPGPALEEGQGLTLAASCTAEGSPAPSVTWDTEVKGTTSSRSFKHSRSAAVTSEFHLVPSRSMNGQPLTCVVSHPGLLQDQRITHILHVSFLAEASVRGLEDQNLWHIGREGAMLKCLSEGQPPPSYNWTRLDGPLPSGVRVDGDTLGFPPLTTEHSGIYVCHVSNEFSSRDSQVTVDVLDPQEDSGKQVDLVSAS
Description: BLI, 26C, bivalent analyte.

The target in assay [2] is T2, His-Nectin-4 ECD (human, UniProt Q96NY8).
T2 chain: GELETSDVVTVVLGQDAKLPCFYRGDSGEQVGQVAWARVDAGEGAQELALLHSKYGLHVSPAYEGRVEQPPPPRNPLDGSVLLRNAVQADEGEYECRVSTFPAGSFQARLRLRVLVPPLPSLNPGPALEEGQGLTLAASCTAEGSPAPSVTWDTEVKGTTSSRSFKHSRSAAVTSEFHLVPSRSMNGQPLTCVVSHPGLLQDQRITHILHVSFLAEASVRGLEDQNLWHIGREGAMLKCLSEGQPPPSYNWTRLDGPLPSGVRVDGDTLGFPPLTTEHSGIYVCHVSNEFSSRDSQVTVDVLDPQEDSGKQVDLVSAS
The experiment in a line: BLI, 26C. (In general: Biolayer interferometry detects binding as a change in optical thickness at a sensor tip.)

B1: HA22 (Enfortumab) (antibody, V domains shown)
VH: EVQLVESGGGLVQPGGSLRLSCAASGFTFSSYNMNWVRQAPGKGLEWVSYISSSSSTIYYADSVKGRFTISRDNAKNSLSLQMNSLRDEDTAVYYCARAYYYGMDVWGQGTTVTVSS
VL: DIQMTQSPSSVSASVGDRVTITCRASQGISGWLAWYQQKPGKAPKFLIYAASTLQSGVPSRFSGSGSGTDFTLTISSLQPEDFATYYCQQANSFPPTFGGGTKVEIK
For the molecule B1, the Kd in assay [1] was 12.9 nM; in assay [2], 5.2 nM.
